{"source": "the array DNA melting data of Ke et al.", "data": [{"assay": "melting temperature; melt of duplexes", "details": "sodium 0.0675 M; strand 1 µM", "units": {"Tm": "°C"}, "values": [{"substance": "CGACGTGCGGGATGTGCTG+CAGCACATGCAGCACGTCG ((((((((.(.((((((((+)))))))).).))))))))", "Tm": 57.2}, {"substance": "CGACGTGCATAATGTGCTG+CAGCACATACTGCACGTCG (((((((((..((((((((+))))))))..)))))))))", "Tm": 50.5}, {"substance": "CGACGTGCAAAATGTGCTG+CAGCACATCAGGCACGTCG ((((((((...((((((((+))))))))...))))))))", "Tm": 49.4}, {"substance": "CGACGTGCCCGATGTGCTG+CAGCACATTCCGCACGTCG ((((((((...((((((((+))))))))...))))))))", "Tm": 48.2}, {"substance": "CGACGTGCACTATGTGCTG+CAGCACATCCGGCACGTCG ((((((((...((((((((+))))))))...))))))))", "Tm": 43.2}, {"substance": "CGACGTGCTCAATGTGCTG+CAGCACATGGAGCACGTCG ((((((((((.((((((((+)))))))).))))))))))", "Tm": 59.5}, {"substance": "CGACGTGCCAAATGTGCTG+CAGCACATGTTGCACGTCG ((((((((.(.((((((((+)))))))).).))))))))", "Tm": 50.5}, {"substance": "CGACGTGCTTTATGTGCTG+CAGCACATAGCGCACGTCG ((((((((..(((((((((+)))))))))..))))))))", "Tm": 47.9}, {"substance": "CGACGTGCTGCATGTGCTG+CAGCACATACGGCACGTCG ((((((((.(.((((((((+)))))))).).))))))))", "Tm": 53.6}, {"substance": "CGACGTGCGACATGTGCTG+CAGCACATGCGGCACGTCG ((((((((..(((((((((+)))))))))..))))))))", "Tm": 54.4}, {"substance": "CGACGTGCGTGATGTGCTG+CAGCACATGCTGCACGTCG ((((((((...((((((((+))))))))...))))))))", "Tm": 49.8}, {"substance": "CGACGTGCTTGATGTGCTG+CAGCACATATAGCACGTCG (((((((((..((((((((+))))))))..)))))))))", "Tm": 54}, {"substance": "CGACGTGCCGCATGTGCTG+CAGCACATGACGCACGTCG ((((((((..(((((((((+)))))))))..))))))))", "Tm": 51.2}, {"substance": "CGACGTGCATCATGTGCTG+CAGCACATGCGGCACGTCG ((((((((..(((((((((+)))))))))..))))))))", "Tm": 52.7}, {"substance": "CGACGTGCCAGATGTGCTG+CAGCACATGAGGCACGTCG (((((((((..((((((((+))))))))..)))))))))", "Tm": 55.4}, {"substance": "CGACGTGCGTTATGTGCTG+CAGCACATCACGCACGTCG ((((((((((.((((((((+)))))))).))))))))))", "Tm": 56.8}, {"substance": "CGACGTGCATTATGTGCTG+CAGCACATCCGGCACGTCG ((((((((...((((((((+))))))))...))))))))", "Tm": 47.3}, {"substance": "CGACGTGCGCCATGTGCTG+CAGCACATAGTGCACGTCG ((((((((.(.((((((((+)))))))).).))))))))", "Tm": 49}, {"substance": "CGACGTGCGTAATGTGCTG+CAGCACATACAGCACGTCG ((((((((...((((((((+))))))))...))))))))", "Tm": 54}, {"substance": "CGACGTGCGAGATGTGCTG+CAGCACATGTCGCACGTCG ((((((((((.((((((((+)))))))).))))))))))", "Tm": 60.6}, {"substance": "CGACGTGCGCGATGTGCTG+CAGCACATTGAGCACGTCG ((((((((.(.((((((((+)))))))).).))))))))", "Tm": 56.8}, {"substance": "CGACGTGCTCCATGTGCTG+CAGCACATTAAGCACGTCG (((((((((..((((((((+))))))))..)))))))))", "Tm": 49.4}, {"substance": "CGACGTGCCTTATGTGCTG+CAGCACATCGGGCACGTCG (((((((((..((((((((+))))))))..)))))))))", "Tm": 53.1}, {"substance": "CGACGTGCACGATGTGCTG+CAGCACATTGGGCACGTCG ((((((((.(.((((((((+)))))))).).))))))))", "Tm": 56.4}, {"substance": "CGACGTGCTCGATGTGCTG+CAGCACATCCTGCACGTCG ((((((((..(((((((((+)))))))))..))))))))", "Tm": 53}, {"substance": "CGACGTGCGACATGTGCTG+CAGCACATCGAGCACGTCG ((((((((...((((((((+))))))))...))))))))", "Tm": 54.8}, {"substance": "CGACGTGCAATATGTGCTG+CAGCACATGCTGCACGTCG (((((((((..((((((((+))))))))..)))))))))", "Tm": 50.7}, {"substance": "CGACGTGCGTTATGTGCTG+CAGCACATATGGCACGTCG ((((((((..(((((((((+)))))))))..))))))))", "Tm": 51.1}, {"substance": "CGACGTGCCTGATGTGCTG+CAGCACATGAAGCACGTCG ((((((((.(.((((((((+)))))))).).))))))))", "Tm": 49.8}, {"substance": "CGACGTGCTACATGTGCTG+CAGCACATTCCGCACGTCG ((((((((...((((((((+))))))))...))))))))", "Tm": 47.2}, {"substance": "CGACGTGCAATATGTGCTG+CAGCACATCCGGCACGTCG ((((((((...((((((((+))))))))...))))))))", "Tm": 48.5}, {"substance": "CGACGTGCCGAATGTGCTG+CAGCACATACTGCACGTCG ((((((((.(.((((((((+)))))))).).))))))))", "Tm": 50.2}, {"substance": "CGACGTGCTATATGTGCTG+CAGCACATAGGGCACGTCG ((((((((..(((((((((+)))))))))..))))))))", "Tm": 53.2}, {"substance": "CGACGTGCGTAATGTGCTG+CAGCACATTGAGCACGTCG ((((((((..(((((((((+)))))))))..))))))))", "Tm": 56.6}, {"substance": "CGACGTGCAGCATGTGCTG+CAGCACATTGCGCACGTCG ((((((((...((((((((+))))))))...))))))))", "Tm": 52.5}, {"substance": "CGACGTGCACTATGTGCTG+CAGCACATGCAGCACGTCG ((((((((...((((((((+))))))))...))))))))", "Tm": 45.3}]}]}
